According to patent US20260176603, “TYPE II CAS PROTEINS AND APPLICATIONS THEREOF” (Alia Therapeutics Srl, published 2026):

T1: EQSC Type II Cas (metagenomic)
T1 chain: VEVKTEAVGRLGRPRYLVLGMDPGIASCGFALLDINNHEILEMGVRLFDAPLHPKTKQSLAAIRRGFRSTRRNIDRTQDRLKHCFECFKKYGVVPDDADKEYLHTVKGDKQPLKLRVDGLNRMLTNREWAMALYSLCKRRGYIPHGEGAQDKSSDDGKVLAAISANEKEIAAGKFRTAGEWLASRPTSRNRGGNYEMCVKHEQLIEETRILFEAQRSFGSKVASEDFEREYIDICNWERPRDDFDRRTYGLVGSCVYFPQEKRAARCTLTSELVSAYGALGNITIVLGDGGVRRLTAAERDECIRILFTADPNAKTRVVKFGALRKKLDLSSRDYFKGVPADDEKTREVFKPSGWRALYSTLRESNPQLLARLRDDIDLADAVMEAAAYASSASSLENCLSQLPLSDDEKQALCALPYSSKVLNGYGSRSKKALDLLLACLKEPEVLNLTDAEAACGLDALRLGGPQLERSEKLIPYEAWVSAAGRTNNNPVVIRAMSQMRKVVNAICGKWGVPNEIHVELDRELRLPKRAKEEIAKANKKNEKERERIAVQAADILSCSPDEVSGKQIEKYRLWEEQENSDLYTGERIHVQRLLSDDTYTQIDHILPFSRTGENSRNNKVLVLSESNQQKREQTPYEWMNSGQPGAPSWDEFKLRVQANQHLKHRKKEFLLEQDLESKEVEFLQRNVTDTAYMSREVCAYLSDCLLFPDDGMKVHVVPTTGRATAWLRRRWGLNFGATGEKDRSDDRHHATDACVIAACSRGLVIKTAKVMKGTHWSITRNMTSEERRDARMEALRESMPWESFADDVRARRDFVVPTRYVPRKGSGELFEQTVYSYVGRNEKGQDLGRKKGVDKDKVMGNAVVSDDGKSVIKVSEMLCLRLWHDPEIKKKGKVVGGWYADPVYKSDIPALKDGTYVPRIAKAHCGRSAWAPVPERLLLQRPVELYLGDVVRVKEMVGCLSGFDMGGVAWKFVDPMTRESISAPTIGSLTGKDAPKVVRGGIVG

T2: BDLP Type II Cas (metagenomic)
T2 chain: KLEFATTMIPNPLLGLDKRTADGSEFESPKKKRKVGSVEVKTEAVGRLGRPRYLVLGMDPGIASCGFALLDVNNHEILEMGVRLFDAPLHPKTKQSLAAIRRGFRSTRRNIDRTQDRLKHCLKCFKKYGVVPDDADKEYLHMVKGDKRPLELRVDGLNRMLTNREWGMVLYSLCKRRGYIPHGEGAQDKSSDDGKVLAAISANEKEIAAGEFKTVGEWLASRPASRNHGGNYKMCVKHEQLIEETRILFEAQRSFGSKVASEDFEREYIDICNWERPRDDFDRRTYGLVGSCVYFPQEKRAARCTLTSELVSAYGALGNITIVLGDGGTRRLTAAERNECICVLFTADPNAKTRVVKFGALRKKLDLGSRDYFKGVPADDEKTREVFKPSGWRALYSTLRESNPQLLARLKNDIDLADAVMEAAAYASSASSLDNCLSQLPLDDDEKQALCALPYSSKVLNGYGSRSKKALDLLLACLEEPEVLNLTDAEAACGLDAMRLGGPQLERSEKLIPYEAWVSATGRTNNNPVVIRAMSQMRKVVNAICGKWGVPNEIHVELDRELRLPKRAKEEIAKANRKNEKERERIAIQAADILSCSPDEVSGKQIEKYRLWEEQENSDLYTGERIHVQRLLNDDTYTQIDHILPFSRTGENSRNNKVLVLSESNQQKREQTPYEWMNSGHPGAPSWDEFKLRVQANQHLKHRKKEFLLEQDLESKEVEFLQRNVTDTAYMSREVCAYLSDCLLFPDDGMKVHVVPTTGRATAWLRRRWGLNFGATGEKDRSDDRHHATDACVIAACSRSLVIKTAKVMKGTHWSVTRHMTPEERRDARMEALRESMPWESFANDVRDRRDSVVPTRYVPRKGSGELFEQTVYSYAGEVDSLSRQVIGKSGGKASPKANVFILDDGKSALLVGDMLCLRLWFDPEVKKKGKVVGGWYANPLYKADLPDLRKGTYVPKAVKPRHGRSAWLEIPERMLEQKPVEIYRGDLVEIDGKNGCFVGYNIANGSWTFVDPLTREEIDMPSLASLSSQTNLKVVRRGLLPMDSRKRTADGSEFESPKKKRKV

B1: gRNA-EQSC-EGFP-g3 ; EGFP target EQSC g3 (ssRNA ; dsDNA)
RNA: GCACGACUUCUUCAAGUCCGCCAGUCUUGAGCUCGGAAACGAGACUCCAGACAAGGGGAACCUACAACGGUAGGUUCACCCGUAGGGUUACCCCCGCGUCAUCUUCGGAAGGCGCGGGGCGAACUCUUUUUU
DNA 1: GCAGCACGACTTCTTCAAGTCCGCCATGCCCGAAGGC
DNA 2: GCCTTCGGGCATGGCGGACTTGAAGAAGTCGTGCTGC
B2: gRNA-EQSC-EGFP-g1 ; EGFP target EQSC g1 (ssRNA ; dsDNA)
RNA: GCCCAUCCUGGUCGAGCUGGACGGUCUUGAGCUCGGAAACGAGACUCCAGACAAGGGGAACCUACAACGGUAGGUUCACCCGUAGGGUUACCCCCGCGUCAUCUUCGGAAGGCGCGGGGCGAACUCUUUUUU
DNA 1: GGTGCCCATCCTGGTCGAGCTGGACGGCGACGTAAAC
DNA 2: GTTTACGTCGCCGTCCAGCTCGACCAGGATGGGCACC
B3: gRNA-EQSC-EGFP-g2 ; EGFP target EQSC g2 (ssRNA ; dsDNA)
RNA: UGCAGAUGAACUUCAGGGUCAGCGUCUUGAGCUCGGAAACGAGACUCCAGACAAGGGGAACCUACAACGGUAGGUUCACCCGUAGGGUUACCCCCGCGUCAUCUUCGGAAGGCGCGGGGCGAACUCUUUUUU
DNA 1: TGGTGCAGATGAACTTCAGGGTCAGCTTGCCGTAGGT
DNA 2: ACCTACGGCAAGCTGACCCTGAAGTTCATCTGCACCA
B4: gRNA-BDLP-EGFP-g3 ; EGFP target BDLP g3 (ssRNA ; dsDNA)
RNA: GUAGUUGCCGUCGUCCUUGAAGAAGUCUUGAGCUCGGAAACGAGACUCCAGACAAGGGGAGUCUACAACAGUAGGUUCACCCGUAGGGUUACCCCCGCGUCAUCCUCGGAAGGCGCGGGGCGAACUCUUUUUU
DNA 1: CTTGTAGTTGCCGTCGTCCTTGAAGAAGATGGTGCG
DNA 2: CGCACCATCTTCTTCAAGGACGACGGCAACTACAAG
B5: gRNA-BDLP-EGFP-g2 ; EGFP target BDLP g2 (ssRNA ; dsDNA)
RNA: GGGGUAGCGGCUGAAGCACUGCAGUCUUGAGCUCGGAAACGAGACUCCAGACAAGGGGAGUCUACAACAGUAGGUUCACCCGUAGGGUUACCCCCGCGUCAUCCUCGGAAGGCGCGGGGCGAACUCUUUUUU
DNA 1: GTCGGGGTAGCGGCTGAAGCACTGCACGCCGTAGG
DNA 2: CCTACGGCGTGCAGTGCTTCAGCCGCTACCCCGAC
B6: gRNA-BDLP-EGFP-g1 ; EGFP target BDLP g1 (ssRNA ; dsDNA)
RNA: GCCCAUCCUGGUCGAGCUGGACGGGUCUUGAGCUCGGAAACGAGACUCCAGACAAGGGGAGUCUACAACAGUAGGUUCACCCGUAGGGUUACCCCCGCGUCAUCCUCGGAAGGCGCGGGGCGAACUCUUUUUU
DNA 1: GGTGCCCATCCTGGTCGAGCTGGACGGCGACGTAAA
DNA 2: TTTACGTCGCCGTCCAGCTCGACCAGGATGGGCACC

Molecular target: T1, EQSC Type II Cas
Assay: cell_activity; PAM NNNNCNNA; U2OS-EGFP
Settings: tags: N-terminal SV5 tag and NLS, C-terminal NLS

activity, > 90 % EGFP KO:
B1
B2
B3

Molecular target: T2, BDLP Type II Cas
Assay: cell_activity; PAM NNNNGT; U2OS-EGFP
Settings: tags: N-terminal SV5 tag and NLS, C-terminal NLS

activity, > 90 % EGFP KO:
B4
B5
B6
